From article PMC8584306, “Characterization of Novel Pathogenic Variants Causing Pyridox(am)ine 5′-Phosphate Oxidase-Dependent Epilepsy” (International Journal of Molecular Sciences, 2021)
Residue numbers refer to the chain shown, from its start. Names may count otherwise.

B1: pyridox(am)ine 5′-phosphate oxidase, wild type (enzyme, human)
chain: MTCWLRGVTATFGRPAEWPGYLSHLCGRSAAMDLGPMRKSYRGDREAFEETHLTSLDPVKQFAAWFEEAVQCPDIGEANAMCLATCTRDGKPSARMLLLKGFGKDGFRFFTNFESRKGKELDSNPFASLVFYWEPLNRQVRVEGPVKKLPEEEAECYFHSRPKSSQIGAVVSHQSSVIPDREYLRKKNEELEQLYQDQEVPKPKSWGGYVLYPQVMEFWQGQTNRLHDRIVFRRGLPTGDSPLGPMTHRGEEDWLYERLAP
notes: human pyridox(am)ine 5′-phosphate oxidase (PNPO), recombinant; The vector pET28-PNPO is named only for the variants; also called PNPO; WT; source: recombinant, purified by the protocol of [4]
B2: pyridox(am)ine 5′-phosphate oxidase R161C variant (enzyme, human)
chain: B1 chain with R161C
notes: human PNPO, patient variant R161C made by site-directed mutagenesis in pET28-PNPO; also called PNPO R161C; source: E. coli Rosetta (DE3), purified as described in [4]
B3: pyridox(am)ine 5′-phosphate oxidase P213S variant (enzyme, human)
chain: B1 chain with P213S
notes: human PNPO, patient variant P213S made by site-directed mutagenesis in pET28-PNPO; also called PNPO P213S; source: E. coli Rosetta (DE3), purified as described in [4]
B4: pyridox(am)ine 5′-phosphate oxidase E50K variant (enzyme, human)
chain: B1 chain with E50K
notes: human PNPO, natural variant E50K made by site-directed mutagenesis in pET28-PNPO; also called PNPO E50K; source: E. coli Rosetta (DE3), purified as described in [4]
B5: pyridox(am)ine 5′-phosphate oxidase D33V variant (enzyme, human)
chain: B1 chain with D33V
notes: human PNPO, patient variant D33V made by site-directed mutagenesis in pET28-PNPO; also called PNPO D33V; source: E. coli Rosetta (DE3), purified as described in [4]

Assays:
[1] = target: T1, pyridox(am)ine 5′-phosphate oxidase (PNPO) (Homo sapiens, UniProt Q9NVS9); assay: differential scanning fluorimetry; format: binding; settings: equimolar FMN added to 2 µM purified enzyme (already FMN-bound); range given for all PNPO forms
T1 construct: homodimer with FMN
T1 sequence (Q9NVS9 1-261): B1 chain
Source text: differential scanning fluorimetry on pyridox(am)ine 5′-phosphate oxidase (PNPO) | equimolar amount of FMN stabilizes all the PNPO forms by increasing the Tm

[2] = target: the molecule itself; assay: SEC; gel filtration on a Superdex 200 10/300 GL column, as described previously [20]; elution profiles compared with the wild type

Molecule | increase in Tm [1] | stoichiometry N [2]
Cc1cc2nc3c(=O)[nH]c(=O)nc-3n(C[C@H](O)[C@H](O)[C@H](O)COP(=O)(O)O)c2cc1C [FMN] | 2–3 °C | –
B1 | – | 2
B2 | – | 2
B3 | – | 2
B4 | – | 2
B5 | – | 2
